This passage reports particle size (DLS, five days) and morphology (TEM, three days) of Aβ1-42 incubated with DhHP-6 results from article PMC6274722.

For this assay, the target named is amyloid β 1-42 peptide (Aβ1-42) (UniProt P05067).

deuterohemin = iron-porphyrin joined to the peptide N-terminus

deuterohemin-AHTVEK-NH2 (also: His2 imidazole is the fifth ligand of the deuterohemin iron) [Deuterohemin-AlaHisThrValGluLys (DhHP-6)]: the particle size (DLS, five days) and morphology (TEM, three days) of Aβ1-42 incubated with DhHP-6 at 10 μM:10 μM, 37 °C was 396 nm.
